From publication PMC5681435, “Differential Regulation of G1 CDK Complexes by the Hsp90-Cdc37 Chaperone System” (Cell Reports, 2017)
Substitutions are numbered along the chain they refer to. In names and notes the source's numbering stands. Several values for one entry are separate records, joined by “and”; a condition that tells them apart may be missing. Identical values can stand only once. Entries after “also recorded” stand apart in the source; their conditions may differ.

B1: p16D84N: p16INK4a mutant in which D84 is mutated to an asparagine (protein)
chain: MEPAAGSSMEPSADWLATAAARGRVEEVRALLEAGALPNAPNSYGRRPIQVMMMGSARVAELLLLHGAEPNCADPATLTRPVHNAAREGFLDTLVVLHRAGARLDVRDAWGRLPVDLAEELGHRDVARYLRAAAGGTRGSNHARIDAAEGPSDIPD
B2: p16M53I: p16INK4a mutant in which M53 is mutated to an isoleucine (protein)
chain: B1 chain with M53I, N84D
B3: p16D108N: p16INK4a mutant, D108 mutated to an asparagine (protein)
chain: B1 chain with N84D, D108N
B4: p16M53E: p16INK4a M53E mutant (protein)
chain: B1 chain with M53E, N84D
B5: Kcyclin: viral D-type cyclin from Kaposi’s sarcoma-associated herpesvirus (protein)
chain: MATANNPPSGLLDPTLCEDRIFYNILEIEPRFLTSDSVFGTFQQSLTSHMRKLLGTWMFSVCQEYNLEPNVVALALNLLDRLLLIKQVSKEHFQKTGSACLLVASKLRSLTPISTSSLCYAAADSFSRQELIDQEKELLEKLAWRTEAVLATDVTSFLLLKLLGGSQHLDFWHHEVNTLITKALVDPKTGSLPASIISAAGCALLVPANVIPQDTHSGGVVPQLASILGCDVSVLQAAVEQILTSVSDFDLRILDSY
modifications: biotin (on the Avi tag); left off: Avi tag, end not stated, kept
notes: viral D-type cyclin from Kaposi’s sarcoma-associated herpesvirus
B6: Vcyclin: viral D-type cyclin from Herpesvirus saimiri (protein)
chain: MADSPNRLNRAKIDSTTMKDPRVLNNLKLRELLLPKFTSLWEIQTEVTVDNRTILLTWMHLLCESFELDKSVFPLSVSILDRYLCKKQGTKKTLQKIGAACVLIGSKIRTVKPMTVSKLTYLSCDCFTNLELINQEKDILEALKWDTEAVLATDFLIPLCNALKIPEDLWPQLYEAASTTICKALIQPNIALLSPGLICAGGLLTTIETDNTNCRPWTCYLEDLSSILNFSTNTVRTVKDQVSEAFSLYDLEIL

Legend:
CDK4-cyclin D1 = test system: CDK4-cyclin D1; set-up: method as in Koh et al., 1995; settings: ref Koh et al., 1995; cited from earlier work
CDK4-Cdc37 complex = target: T1, CDK4-Cdc37 complex (Homo sapiens, UniProt P11802); assay type: binding; settings: HTRF competition, 8 nM GSTCDK4, 150 nM C-Avi Cdc37
T1 construct: Full length human CDK4 and CDK6 with an N-terminal; made in house; host or cells: GSTCDK4: Sf9 insect cells; Cdc37: E. coli
T1 sequence (P11802 whole entry, one chain of several): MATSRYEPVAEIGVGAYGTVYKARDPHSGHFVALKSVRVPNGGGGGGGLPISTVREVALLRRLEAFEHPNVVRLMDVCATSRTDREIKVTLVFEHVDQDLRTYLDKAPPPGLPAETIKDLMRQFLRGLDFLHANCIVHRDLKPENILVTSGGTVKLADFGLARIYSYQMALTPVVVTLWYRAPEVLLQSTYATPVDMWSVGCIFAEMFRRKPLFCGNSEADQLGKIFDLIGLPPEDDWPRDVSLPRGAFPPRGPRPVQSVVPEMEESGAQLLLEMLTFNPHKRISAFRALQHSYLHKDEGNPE

CDK4 = target: T2, CDK4 (Homo sapiens, UniProt P11802); assay: SPR binding to immobilized GSTCDK4; settings: for Binding to CDK4 by SPR (in words): GSTCDK4 captured on chip
T2 construct: Full length human CDK4 and CDK6 with an N-terminal; made in house; host or cells: Sf9 insect cells (baculovirus, MultiBac)
T2 sequence (P11802 whole entry): as the sequence (P11802 whole entry, one chain of several) above

[1] = Differential scanning fluorimetry (DSF) melting temperature; assay type: physicochemical; settings: for Tm: 5 µM protein
G1 progression = test system: G1 progression; set-up: method as in Koh et al., 1995; settings: ref Koh et al., 1995; cited from earlier work
CDK6 = target: T3, CDK6 (Homo sapiens, UniProt Q00534); assay: SPR binding to immobilized GSTCDK6; settings: for Kd: GSTCDK6 captured on chip, 4 °C
T3 construct: Full length human CDK4 and CDK6 with an N-terminal; made in house; host or cells: Sf9 insect cells (baculovirus, MultiBac)
T3 sequence (Q00534 whole entry): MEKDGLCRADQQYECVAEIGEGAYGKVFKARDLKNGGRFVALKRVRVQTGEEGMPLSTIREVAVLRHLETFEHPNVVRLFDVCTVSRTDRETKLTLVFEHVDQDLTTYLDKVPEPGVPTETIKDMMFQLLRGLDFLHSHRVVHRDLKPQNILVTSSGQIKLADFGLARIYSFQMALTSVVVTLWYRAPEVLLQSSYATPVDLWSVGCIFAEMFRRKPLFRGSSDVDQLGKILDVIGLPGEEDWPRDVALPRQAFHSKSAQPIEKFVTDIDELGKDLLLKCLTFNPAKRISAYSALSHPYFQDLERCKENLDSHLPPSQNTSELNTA

[2] = target: T4, CDK6-Cdc37 and CDK6-Cdc37-SfHsp90 complexes (Homo sapiens, UniProt Q00534); assay: Pull-down with Avi-tagged bait from CDK6-Cdc37 and CDK6-Cdc37-SfHsp90 complexes assembled in insect cells; assay type: binding; settings: 3-fold molar excess of complex, 4 °C
T4 construct: Full length human CDK4 and CDK6 with an N-terminal; made in house; host or cells: Sf9 insect cells (co-expression, baculovirus)
T4 sequence (Q00534 whole entry, one chain of several): as the sequence (Q00534 whole entry) above
Description: exchange chromatography (HiTrap Q, GE Healthcare). Protein concentrations were determined by NanoDrop2000 UV-Vis Spectrophotometer (Thermo Scientific) or using a Shimadzu UV1800 spectrophotometer. A representative SDS-polyacrylamide gel stained with silver is shown in Figure S4 to illustrate the purity of the GSTCDK4 and GSTCDK6 […]
Avi-tagged proteins (Cdc37, p16INK4a, p16INK4a mutants, Kcyclin and Vcyclin) were biotinylated to provide an affinity tag for the streptavidin-tagged XL665 dye. A substantial amount of biotinylated protein was purified from the recombinant E. coli cells as a result of endogenous BirA activity. Proteins were further modified by incubating 40 µM of the Avi-tagged protein with 10 µg BirA in biotinylation buffer (50 mM Bicine pH 8.3, 10 mM ATP, 10 mM MgOAc, 50 µM d-biotin) at 30°C for 60 minutes. […] The extent of protein biotinylation was monitored by pull downs using High Capacity NeutrAvidin® Agarose Resin (Thermo […]
To assemble the various complexes, 15 µg of Cdc37 was mixed with a molar equivalent of CDK6, and incubated for 1hour at 4 °C. […] The reactions were stopped by addition of 2 x LDS buffer and analysed by SDS-PAGE and subsequent western blotting using an anti-phosphorylated S780 antibody […]
Homogenous time-resolved fluorescence (HTRF) […]

Molecule	Displacement of Cdc37 from CDK4-Cdc37 complex (in words) (CDK4-Cdc37 complex)	Binding to CDK4 by SPR (in words) (CDK4)	Tm [1]	Kd (CDK6) [nM]	ΔTm (versus p16INK4a) [1]	other results
B1	unable to displace CDK4 or CDK6 from Cdc37	binding could be detected but not quantified	45.1 (±1.9) °C	60	–	Inhibition of CDK4-cyclin D1 kinase activity (CDK4-cyclin D1): as effectively as wild-type p16INK4a; Tm ([1]; listed as D84N): 45.1 °C; Inhibition of G1 progression (G1 progression): modestly less effective
B2	ineffective	binding could be detected but not quantified	42.7 (±0.47) °C	–	−4.9 (±2.33) °C	Reduction in the strength of the interaction with CDK4 versus wild-type p16INK4a (CDK4; enhanced koff rate toward CDK4): > 10^6 fold; Tm ([1]; listed as M53I): 42.7 °C; Higher rate of dissociation from CDK6 compared with wild-type p16INK4a (CDK6): approximately 10 fold
B3	only a modest reduction in activity	–	36.4 °C and 36.4 (±3.1) °C	–	−10.5 (±1.29) °C	–
B4	–	–	43.2 (±0.38) °C	–	−4.6 (±1.66) °C	–
B5	–	–	–	–	–	Displacement of CDK6 from CDK6-Cdc37 and CDK6-Cdc37-SfHsp90 (pull-down) [2]: able to displace CDK6; also recorded: could extract CDK6
B6	–	the data quality precluded calculation of a Kd	–	0.016 ± 0.013	–	–
